{"source": "paper PMC6449189", "key": {"AcrVA4": {"biological_target": "AcrVA4", "assay": "SEC-MALS"}, "[1]": {"biological_target": "Lachnospiraceae bacterium (ND2006) Cas12a (Lachnospiraceae bacterium (ND2006))", "assay": "SEC-MALS"}}, "data": [{"substance": "AcrVA4 (natural protein)", "values": [{"measurement": "stoichiometry N", "setting": "AcrVA4", "value": 2}, {"measurement": "stoichiometry N (AcrVA4 per LbCas12a-crRNA)", "setting": "[1]", "value": 2}]}]}
